Test results reported in patent publication US8420776B2, “Ube2G2 binding domain in the ubiquitin ligase gp78 and methods of use thereof” (The United States of America, as Represented by the …, priority 2004, dated 2013).

Legend:
[1] = biological target: T1, lysine 48-linked (K48) tetra-ubiquitin (Homo sapiens, UniProt P0CG47); assay: Tetra-ubiquitin binding to GST fusions; conditions: anti-ubiquitin immunoblot
T1 construct: 1 μg K48 tetra-ubiquitin produced as described (Piotrowski et al., 1997); made in house
Procedure: GST fusions were purified from E. Coli. Binding was carried out using equi-molar amount of fusion proteins measured by Commassie blue staining. Generally, 20 picomoles/sample were used. In vitro translated E2 was generated by coupled transcription and translation using 35S methionine in either wheat germ or rabbit reticulocyte lysate. Binding assays using in vitro translated E2 was carried out by incubating GST protein pre-bound to Glutathione-sepharose 4B with […] of ^35S-methionine labeled E2 in binding buffer (25 mM Tris-HCl, pH 7.4; 50 mM NaCl, 5 mM DTT; and 0.5% NP-40) overnight at 4° C. Beads were washed with binding buffer and resolved by SDS-PAGE under reducing conditions. Analysis was by Storm PhosphoImager (Applied Biosystems, Foster City, Calif.). Direct binding assays used wild type His6-MmUbc7 (His6-Ube2G2) and Glutathione-sepharose bound GST fusions. Beadbound GST protein was incubated with 100 ng purified His6-MmUbc7 in binding buffer and washed and eluted as above. After transfer to Hybond-P (Amersham Biosciences) binding was assessed with anti-His6 followed by Enhanced Chemiluminescence ECL; Pierce). Ubiquitin binding studies were performed with binding and washing as above using 1 μg K48 tetra-ubiquitin produced as described (Piotrowski et al., 1997). Detection was by anti-ubiquitin immunoblotting.

ERAD substrate CD3-δ = assay: CD3-δ level in co-transfected cells by immunoblotting; assay type: cell-based; conditions: for reversal of G2BD-induced CD3-δ stabilization by co-transfected Ube2G2: cells expressing Flag-tagged gp78 574-643, 2 or 4 μg Ube2G2 plasmid; for effect on CD3-δ level (stabilization): co-transfection with CD3-δ, immunoblot
Procedure: (§1) Transfections of HT1080, NIH 3T3 and HEK 293T cells were carried out ˜24 hr after plating using Polyfect (Qiagen, Valencia, Calif.) and cells harvested after ˜48 hr. J558 cells were transfected by electroporation using Bio-rad GENE pulser II at settings of 250 v, 950uF. Vector without insert was used to equalize total plasmid. In most experiments 0.15 μg of pEGFP-C1 served as an internal control. For experiments not involving immunoprecipitation, 6×10^5 cells were plated in 6 well plates and cell lysis was with Mammalian Protein Extraction Reagent (Pierce). For immunoprecipitation, 2.4×10^6 cells were seeded in 100 mm dishes and cells were lysed in RIPA buffer (1×PBS, 1% Nonidet P40. 0.5% sodium deoxycholate, 0.1% SDS). Lysis buffers were supplemented with Protease Inhibitor Cocktail (Sigma) and 10 mM iodoacetamide. Supernatants were analyzed after a 10,000×g centrifugation using standard techniques for immunoprecipitation, SDS-PAGE, immunoblotting and ECL. Treatment of cells with MG132 (Sigma) was at 50 μM for eight hr. Cycloheximnide was used at 50 μg/ml. All cells were collected at the end of the six hr chase.
FIG. 7 depicts the stabilization of CD3-δ protein in cells transfected with the G2BD, but not with the G2BD with amino acids 579-584 (of SEQ ID NO:2) mutated. HEK 293T cells were transfected with the ERAD substrate CD3-δ along with the indicated GFP fusions of gp78. The left and right sides are two separate experiments.
To test this, GFP fusions of either a minimal E2 binding domain (GFP-574-611) or a more extended region that includes the C-terminus of gp78 (GFP-574-643) were evaluated (FIG. 21A). […] To assess this further, the C-terminal region of gp78 was fused to the eight amino acid Flag tag. […] Mdm2 is a RING finger E3 for both itself and p53 that is neither an ERAD substrate nor known to utilize Ube2G2 as an E2. […] To establish with certainty that the effect observed with expression of the Ube2G2 binding site is a consequence of binding endogenous E2, and not due to other unanticipated effects, cells were co-transfected with increasing amounts of Ube2G2 (FIG. 21C, lanes 3 and 4). […] These findings clearly establish that the isolated E2 binding site has the potential to markedly alter ERAD of CD3-δ. To ensure the effect observed was not peculiar to one substrate, TCR-α was evaluated (FIG. 21D).

Myc-Ube2G2 = biological target: T2, Myc-Ube2G2 (Mus musculus, UniProt P60605); assay: Co-immunoprecipitation with co-expressed Myc-Ube2G2 in cells; assay type: cell-based; conditions: anti-Myc IP, anti-gp78 IB; MG132 8 hr
T2 construct: expressed in transfected cells; host or cells: HEK 293T
T2 sequence (P60605 1-165): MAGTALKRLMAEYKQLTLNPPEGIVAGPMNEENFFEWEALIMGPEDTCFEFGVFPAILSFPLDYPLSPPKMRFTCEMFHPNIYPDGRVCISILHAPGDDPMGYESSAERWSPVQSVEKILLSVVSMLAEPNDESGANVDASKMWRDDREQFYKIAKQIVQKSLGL
Procedure: as §1
FIG. 5 depicts the results of immunoprecipitation of Ube2G2 (MmUbc7) from HEK 293T cells co-transfected with a plasmid encoding myc-tagged MmUbc7/Ube2G2 together with s plasmid encoding various forms of gp78. HEK 293T cells were transfected with a plasmid encoding myc-tagged MmUbc7/Ube2G2 together with plasmids encoding various forms of gp78. After 48 hours, cells were harvested and co-immuntoprecipitated with an anti-Myc tage. Anti-gp78 was used for detection. “R2M” indicates a mutation of two crucial residues in the RING finger. “T” indicates C terminal truncations at the indicated amino acids. ΔB is the mutation indicated above in FIG. 4 in the context of the full length gp78 and “Cue12M” indicates mutations in the Cue domain of gp78.
To confirm the significance of the Ube2G2 binding site in cells, a variety of mutations and truncations of full-length gp78 were tested for binding of co-expressed Myc-Ube2G2 (FIG. 19A). Cells were treated with the proteasome inhibitor MG132 in an attempt to equalize levels of the various forms of gp78.

B1: 435-507: GST fusion of amino acids 435-507 of gp78, the Cue domain region (protein)
chain: SFSVEVMHTTNILGITQASNSQLNAMAHQIQEMFPQVPYHLVLQDLQLTRSVEITTDNILEGRIQVPFPTQRS
modifications: left off: a dimerising Fc or GST
notes: GST fusion of amino acids 435-507 of gp78, the Cue domain region
- binding of K48 tetra-ubiquitin [1]: sufficient to bind tetra-ubiquitin

B2: Ube2G2: ubiquitin conjugating enzyme Ube2G2 expressed from co-transfected plasmid (protein, listed as Homo sapiens)
chain: MAGTALKRLMAEYKQLTLNPPEGIVAGPMNEENFFEWEALIMGPEDTCFEFGVFPAILSFPLDYPLSPPKMRFTCEMFHPNIYPDGRVCISILHAPGDDPMGYESSAERWSPVQSVEKILLSVVSMLAEPNDESGANVDASKMWRDDREQFYKIAKQIVQKSLGL
- reversal of G2BD-induced CD3-δ stabilization by co-transfected Ube2G2 (ERAD substrate CD3-δ): dose-dependent reversal of CD3-δ stabilization
- reversal of G2BD-induced CD3-δ stabilization by co-transfected Ube2G2 (ERAD substrate CD3-δ; listed as Ube2G2/MmUbc7): reversed

B3: Cue-m1: GST fusion of complete C-terminal region of gp78 with MFP to GGR mutation of residues 467 to 469 (protein)
chain: IRRHKNYLRVVGNMEARFAVATPEELAVNNDDCAICWDSMQAARKLPCGHLFHNSCLRSWLEQDTSCPTCRMSLNIADNNRVREEHQGENLDENLVPVAAAEGRPRLNQHNHFFHFDGSRIASWLPSFSVEVMHTTNILGITQASNSQLNAMAHQIQEGGRQVPYHLVLQDLQLTRSVEITTDNILEGRIQVPFPTQRSDSIRPALNSPVERPSSDQEEGETSAQTERVPLDLSPRLEETLDFGEVEVEPSEVEDFEARGSRFSKSADERQRMLVQRKDELLQQARKRFLNKSSEDDAASESFLPLEGASSDPVTLRRRMLAAAAERRLQKQQTS
modifications: left off: a dimerising Fc or GST
- binding of K48 tetra-ubiquitin [1]: total loss of ubiquitin binding

B4: Cue-m2: GST-gp78 fusion with VLQDL to RLQVD mutation of residues 476 to 480 (protein)
chain: IRRHKNYLRVVGNMEARFAVATPEELAVNNDDCAICWDSMQAARKLPCGHLFHNSCLRSWLEQDTSCPTCRMSLNIADNNRVREEHQGENLDENLVPVAAAEGRPRLNQHNHFFHFDGSRIASWLPSFSVEVMHTTNILGITQASNSQLNAMAHQIQEMFPQVPYHLRLQVDQLTRSVEITTDNILEGRIQVPFPTQRSDSIRPALNSPVERPSSDQEEGETSAQTERVPLDLSPRLEETLDFGEVEVEPSEVEDFEARGSRFSKSADERQRMLVQRKDELLQQARKRFLNKSSEDDAASESFLPLEGASSDPVTLRRRMLAAAAERRLQKQQTS
modifications: left off: a dimerising Fc or GST
- binding of K48 tetra-ubiquitin [1]: total loss of ubiquitin binding

B5: GFP-574-643: GFP fusion of a more extended region that includes the C-terminus of gp78, residues 574-643 (protein, listed as Homo sapiens)
chain: SADERQRMLVQRKDELLQQARKRFLNKSSEDDAASESFLPLEGASSDPVTLRRRMLAAAAERRLQKQQTS
- effect on CD3-δ level (stabilization) (ERAD substrate CD3-δ): dramatically stabilized CD3-δ

B6: Flag-tagged gp78 residues 574-643: C-terminal region of gp78 fused to the eight amino acid Flag tag (protein)
chain: SADERQRMLVQRKDELLQQARKRFLNKSSEDDAASESFLPLEGASSDPVTLRRRMLAAAAERRLQKQQTS
modifications: left off: small tags and cut ends
notes: C-terminal region of gp78 fused to the eight amino acid Flag tag
- effect on CD3-δ level (stabilization) (ERAD substrate CD3-δ): marked stabilization of CD3-δ

B7: gp78576: gp78 truncated after amino acid 576 of SEQ ID NO:2 (protein, listed as Homo sapiens)
chain: MPLLFLERFPWPSLRTYTGLSGLALLGTIISAYRALSQPEAGPGEPDQLTASLQPEPPAPARPSAGGPRARDVAQYLLSDSLFVWVLVNTACCVLMLVAKLIQCIVFGPLRVSERQHLKDKFWNFIFYKFIFIFGVLNVQTVEEVVMWCLWFAGLVFLHLMVQLCKDRFEYLSFSPTTPMSSHGRVLSLLVAMLLSCCGLAAVCSITGYTHGMHTLAFMAAESLLVTVRTAHVILRYVIHLWDLNHEGTWEGKGTYVYYTDFVMELTLLSLDLMHHIHMLLFGNIWLSMASLVIFMQLRYLFHEVQRRIRRHKNYLRVVGNMEARFAVATPEELAVNNDDCAICWDSMQAARKLPCGHLFHNSCLRSWLEQDTSCPTCRMSLNIADNNRVREEHQGENLDENLVPVAAAEGRPRLNQHNHFFHFDGSRIASWLPSFSVEVMHTTNILGITQASNSQLNAMAHQIQEMFPQVPYHLVLQDLQLTRSVEITTDNILEGRIQVPFPTQRSDSIRPALNSPVERPSSDQEEGETSAQTERVPLDLSPRLEETLDFGEVEVEPSEVEDFEARGSRFSKSAD
- E2 association of full-length gp78 forms with co-expressed Myc-Ube2G2 (Myc-Ube2G2): loss of E2 binding
